Reference: patent US20110059095A1 (Regeneron, published 2011)

T1: C-terminal biotinylated human PAR-2 peptide SEQ ID NO:873 (Arg-36 to Ala) (human, not fully specified; C-terminal biotin (K-B))
T1 construct: alanine-scan mutant
T1 peptide: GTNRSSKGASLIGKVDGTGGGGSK

T2: C-terminal biotinylated human PAR-2 peptide SEQ ID NO:877 (Gly-40 to Ala) (human, not fully specified; C-terminal biotin (K-B))
T2 construct: alanine-scan mutant
T2 peptide: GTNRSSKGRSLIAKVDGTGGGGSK

T3: C-terminal biotinylated human PAR-2 peptide SEQ ID NO:878 (Lys-41 to Ala) (human, not fully specified; C-terminal biotin (K-B))
T3 construct: alanine-scan mutant
T3 peptide: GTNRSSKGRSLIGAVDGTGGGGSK

T4: C-terminal biotinylated human PAR-2 peptide SEQ ID NO:879 (Val-42 to Ala) (human, not fully specified; C-terminal biotin (K-B))
T4 construct: alanine-scan mutant
T4 peptide: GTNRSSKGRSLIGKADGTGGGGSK

T5: C-terminal biotinylated human PAR-2 peptide SEQ ID NO:880 (Asp-43 to Ala) (human, not fully specified; C-terminal biotin (K-B))
T5 construct: alanine-scan mutant
T5 peptide: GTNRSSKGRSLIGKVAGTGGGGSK

T6: C-terminal biotinylated human PAR-2 peptide SEQ ID NO:872 (Gly-35 to Ala) (human, not fully specified; C-terminal biotin (K-B))
T6 construct: alanine-scan mutant
T6 peptide: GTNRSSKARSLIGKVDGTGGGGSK

T7: C-terminal biotinylated human PAR-2 peptide SEQ ID NO:875 (Leu-38 to Ala) (human, not fully specified; C-terminal biotin (K-B))
T7 construct: alanine-scan mutant
T7 peptide: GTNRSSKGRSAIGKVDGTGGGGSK

T8: C-terminal biotinylated human PAR-2 peptide SEQ ID NO:882 (Thr-45 to Ala) (human, not fully specified; C-terminal biotin (K-B))
T8 construct: alanine-scan mutant
T8 peptide: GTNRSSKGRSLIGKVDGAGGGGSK

T9: C-terminal biotinylated human PAR-2 peptide SEQ ID NO:876 (Ile-39 to Ala) (human, not fully specified; C-terminal biotin (K-B))
T9 construct: alanine-scan mutant
T9 peptide: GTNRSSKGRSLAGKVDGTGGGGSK

T10: C-terminal biotinylated human PAR-2 peptide SEQ ID NO:874 (Ser-37 to Ala) (human, not fully specified; C-terminal biotin (K-B))
T10 construct: alanine-scan mutant
T10 peptide: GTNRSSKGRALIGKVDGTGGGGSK

T11: C-terminal biotinylated human PAR-2 peptide SEQ ID NO:881 (Gly-44 to Ala) (human, not fully specified; C-terminal biotin (K-B))
T11 construct: alanine-scan mutant
T11 peptide: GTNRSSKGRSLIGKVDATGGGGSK

T12: Peptide B (human PAR-2), unbiotinylated (Human)
T12 construct: also called Peptide B No Biotin
T12 peptide: SLIGKVDGTSHVTG

T13: Peptide J (pig PAR-2) (Pig (Sus scrofa))
T13 peptide: GTSRPSKGRSLIGKADNT

B1: H4H588N (antibody, human IgG4, V domains shown)
VH: EVQLLESGGGLVQPGGSLRLSCAASGFTFSSYAMTWVRQAPGKGLYWVSAISGGRGSAYYADSVKGRFTISRDNSKNTLYLQMNSLRAEDTAVYYCAKEGDSGYDLAYWGRGTLVTVSS
VL: DIQMTQSPSSLSASVGDRVTITCRARQGISNNLAWLQQKPGKAPKSLIYAASSLQSGIPSKFSGSGSGTYFTLTISSLQPEDFATYYCQQYKSSPLTFGGGTKVEIK
notes: also called H2M588N variable regions
B2: H4H581P (antibody, human IgG4, V domains shown)
VH: QVQLVESGGGVVQPGRSLRLSCVASGFTFSRYGIHWVRQAPGKGLEWVIVISYDGINKYYADSVKGRFTISRDNSKNTVYLQMNSLRAEDTAVYYCAKGDFWSGYFDYWGQGTLVTVSS
VL: DIVMTQTPLSSPVTLGQPASISCRSSQSLVHSDGNTYLSWLHQRPGQPPRLLIYKISNRFSGVPDRFSGSGAGTDFTLQISRVEAEDVGIYYCMQATQFPTFGGGTKVEIK
notes: also called mAb H4H581P; H1H581P variable regions
B3: H4H583P (antibody, human IgG4, V domains shown)
VH: QVQLVESGGGVVQPGMSLRLSCTASGFTFRRYGMHWVRQAPGKGLEWVAVIWYDGSNKYYADSVKGRFTITRDNSKNTLYLQMNSLRAEDTAIYFCASEITIGDWFDPRGQGTLVTVSS
VL: AIQMTQSPSSLSASVGDRVTITCRASQGIRNDLGWFQQKPGKVPKLLIYAASTLHSGVPSRFSGSGFGTDFTLTISSLQPEDFATYYCLQDFNYPLTFGGGTKVEIK
notes: also called H1H583P variable regions

Experiments:
[1] = molecular target: T1, C-terminal biotinylated human PAR-2 …; assay: alanine scan by biolayer interferometry (Octet Red): C-terminal biotin peptide on streptavidin tips, 200 nM antibody; T1/2 relative to wild-type peptide SEQ ID NO:871
Experimental: (§1) In order to more particularly identify the amino acids of PAR-2 with which the PAR-2 antibodies interact, an alanine scanning study was carried out using peptides comprising the activating PAR-2 protease cleavage site.
(§2) The ability of each peptide mutant to bind to PAR-2 antibodies was measured using biolayer interferometry (Octet Red; ForteBio). Each peptide (2.5 μg/ml) was captured on streptavidin coated biosensor tips (Octet SA sensor) for 10 seconds. To measure binding and dissociation between each peptide and PAR-2 antibody, the peptide-coated biosensors were contacted with 200 nM solutions of PAR-2 antibodies for 5 minutes (binding) followed by transfer to buffer with no antibody for 10 min (dissociation). […] The results are expressed as percent binding and percent T_{1/2} relative to WT peptide (Tables 24-28).

[2] = molecular target: T2, C-terminal biotinylated human PAR-2 …; assay: as above
Experimental: as §1, §2

[3] = molecular target: T3, C-terminal biotinylated human PAR-2 …; assay: as above
Experimental: as §1, §2

[4] = molecular target: T4, C-terminal biotinylated human PAR-2 …; assay: as above
Experimental: as §1, §2

[5] = molecular target: T5, C-terminal biotinylated human PAR-2 …; assay: as above
Experimental: as §1, §2

[6] = molecular target: T6, C-terminal biotinylated human PAR-2 …; assay: as above
Experimental: as §1, §2

[7] = molecular target: T7, C-terminal biotinylated human PAR-2 …; assay: as above
Experimental: as §1, §2

[8] = molecular target: T8, C-terminal biotinylated human PAR-2 …; assay: as above
Experimental: as §1, §2

[9] = molecular target: T9, C-terminal biotinylated human PAR-2 …; assay: as above
Experimental: as §1, §2

[10] = molecular target: T10, C-terminal biotinylated human PAR-2 …; assay: as above
Experimental: as §1, §2

[11] = molecular target: T11, C-terminal biotinylated human PAR-2 …; assay: as above
Experimental: as §1, §2

[12] = molecular target: T12, Peptide B (human PAR-2), unbiotinylated; assay: SPR, antibody captured
Experimental: (§3) Equilibrium dissociation constants (KD values) for antigen binding to selected purified PAR-2 antibodies were determined by surface kinetics using a real-time surface plasmon resonance biosensor assay. Antibody was captured on either a rabbit anti-mouse IgG polyclonal antibody (GE Healthcare, Piscataway, N.J.) surface or a goat anti-human IgG polyclonal antibody (Jackson Immuno Research Lab, West Grove, Pa.) surface created through direct amine chemical coupling to a BIACORE™ CM5 sensor chip to form a captured antibody surface. […] Antigen-antibody binding and dissociation were monitored in real time at room temperature. Kinetic analysis was performed to calculate KD and half-life of antigen/antibody complex dissociation (Table 10). For those antibodies where no T_{1/2} value is shown, steady state analysis was used to calculate the KD value. NB: no binding observed under current experimental conditions. ND: not determined.

[13] = molecular target: T13, Peptide J (pig PAR-2); assay: SPR, antibody captured
Experimental: as §3

Binder | percent of T1/2 relative to wild-type peptide (average of duplicate experiments) [1] | percent of T1/2 relative to wild-type peptide (average of duplicate experiments) [2] | percent of T1/2 relative to wild-type peptide (average of duplicate experiments) [3] | percent of T1/2 relative to wild-type peptide (average of duplicate experiments) [4] | percent of T1/2 relative to wild-type peptide (average of duplicate experiments) [5] | percent of T1/2 relative to wild-type peptide (average of duplicate experiments) [6] | percent of T1/2 relative to wild-type peptide (average of duplicate experiments) [7] | percent of T1/2 relative to wild-type peptide (average of duplicate experiments) [8] | percent of T1/2 relative to wild-type peptide (average of duplicate experiments) [9] | percent of T1/2 relative to wild-type peptide (average of duplicate experiments) [10] | percent of T1/2 relative to wild-type peptide (average of duplicate experiments) [11] | Kd [12] | T1/2 [12] | binding result [13] | Kd [13] | T1/2 [13]
B1 | 140% | 0.5% | 84% | 0.5% | 4.5% | 177% | 71% | 64% | 22% | 85% | 1% | 84 nM | 9 min | no binding |  | 
B2 | 106% | 24% | 56% | 1% | 20% | 118% | 0.2% | 112% | 0.1% | 5% | 121% |  |  |  |  | 
B3 |  |  |  |  |  |  |  |  |  |  |  |  |  |  | 190 nM | 0.16 min
